Test results from publication PMC10591911 (Cell reports, 2023).

B1: recombinant 6His-3FLAG-Cdc14 (enzyme, S. cerevisiae, UniProt Q00684 1-551, looked up)
chain: MRRSVYLDNTIEFLRGRVYLGAYDYTPEDTDELVFFTVEDAIFYNSFHLDFGPMNIGHLYRFAVIFHEILNDPENANKAVVFYSSASTRQRANAACMLCCYMILVQAWTPHQVLQPLAQVDPPFMPFRDAGYSNADFEITIQDVVYGVWRAKEKGLIDLHSFNLESYEKYEHVEFGDFNVLTPDFIAFASPQEDHPKGYLATKSSHLNQPFKSVLNFFANNNVQLVVRLNSHLYNKKHFEDIGIQHLDLIFEDGTCPDLSIVKNFVGAAETIIKRGGKIAVHCKAGLGRTGCLIGAHLIYTYGFTANECIGFLRFIRPGMVVGPQQHWLYLHQNDFREWKYTTRISLKPSEAIGGLYPLISLEEYRLQKKKLKDDKRVAQNNIEGELRDLTMTPPSNGHGALSARNSSQPSTANNGSNSFKSSAVPQTSPGQPRKGQNGSNTIEDINNNRNPTSHANRKVVIESNNSDDESMQDTNGTSNHYPKVSRKKNDISSASSSRMEDNEPSATNINNAADDTILRQLLPKNRRVTSGRRTTSAAGGIRKISGSIKK

Experiments:
[1] = biological target: Rim4-FLAG (S. cerevisiae) (UniProt P38741); assay: mass photometry
[2] = biological target: recombinant Bmh1-EGFP-His6 (S. cerevisiae) (UniProt P29311); assay: pull-down
[3] = biological target: recombinant Bmh2-EGFP-His6 (S. cerevisiae) (UniProt P34730); assay: pull-down
[4] = biological target: recombinant Bmh1/2-EGFP-His6 (S. cerevisiae) (UniProt P29311); assay: pull-down
[5] = biological target: T1, recombinant Rim4(PxLm)-His6 (S. cerevisiae, UniProt P38741 1-713, P454E455L456 to A454E455G456); assay: pull-down
T1 sequence (looked up): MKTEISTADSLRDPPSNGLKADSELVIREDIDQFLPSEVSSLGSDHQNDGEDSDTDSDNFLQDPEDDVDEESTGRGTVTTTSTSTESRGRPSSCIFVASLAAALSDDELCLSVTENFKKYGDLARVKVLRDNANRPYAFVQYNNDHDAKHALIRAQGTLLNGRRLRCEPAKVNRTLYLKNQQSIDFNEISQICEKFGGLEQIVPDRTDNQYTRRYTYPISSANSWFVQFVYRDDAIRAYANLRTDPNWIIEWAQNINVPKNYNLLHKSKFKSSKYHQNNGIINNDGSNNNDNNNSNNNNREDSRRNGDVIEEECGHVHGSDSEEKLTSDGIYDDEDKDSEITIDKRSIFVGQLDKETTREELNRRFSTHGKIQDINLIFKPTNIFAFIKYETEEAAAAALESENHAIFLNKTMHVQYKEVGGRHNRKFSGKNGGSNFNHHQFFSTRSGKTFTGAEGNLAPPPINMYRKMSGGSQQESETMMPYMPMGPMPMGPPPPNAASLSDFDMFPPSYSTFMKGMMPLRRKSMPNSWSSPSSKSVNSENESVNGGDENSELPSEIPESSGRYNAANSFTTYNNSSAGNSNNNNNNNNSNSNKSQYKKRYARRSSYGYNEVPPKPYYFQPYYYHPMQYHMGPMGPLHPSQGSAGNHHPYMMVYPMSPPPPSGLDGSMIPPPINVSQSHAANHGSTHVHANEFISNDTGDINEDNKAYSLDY

[6] = biological target: B1; assay: pull-down
[7] = biological target: T2, Bmh1 (S. cerevisiae (endogenous in W303 …, UniProt P29311 1-267)); assay: mass photometry
T2 sequence (looked up): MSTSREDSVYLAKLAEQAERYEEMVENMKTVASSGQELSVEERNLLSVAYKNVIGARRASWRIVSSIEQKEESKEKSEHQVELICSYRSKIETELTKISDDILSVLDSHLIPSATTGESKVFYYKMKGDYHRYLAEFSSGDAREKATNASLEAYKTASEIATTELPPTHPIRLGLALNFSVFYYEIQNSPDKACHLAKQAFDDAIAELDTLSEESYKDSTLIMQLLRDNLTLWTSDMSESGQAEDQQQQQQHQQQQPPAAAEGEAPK

Bmh1 (from UniProt P29311 1-267) (natural protein)
stoichiometry N [1]: 1

Bmh2 (from UniProt P34730 1-273) (natural protein)
stoichiometry N [1]: 1

PKA-treated Rim4-His6 (Rim4-BBS-p) (from UniProt P38741 1-713) (natural protein)
mole ratio in the pull-down, printed 2.5:1 [2]: 2.5
mole ratio in the pull-down, printed 2.5:1 [3]: 2.5
mole ratio in the pull-down, printed 2.5:1 [4]: 2.5

B1
binding result [5]: binds

B2: recombinant Rim4(ΔC289)-His6 (domain or fragment, S. cerevisiae, UniProt P38741 1-424, looked up)
chain: MKTEISTADSLRDPPSNGLKADSELVIREDIDQFLPSEVSSLGSDHQNDGEDSDTDSDNFLQDPEDDVDEESTGRGTVTTTSTSTESRGRPSSCIFVASLAAALSDDELCLSVTENFKKYGDLARVKVLRDNANRPYAFVQYNNDHDAKHALIRAQGTLLNGRRLRCEPAKVNRTLYLKNQQSIDFNEISQICEKFGGLEQIVPDRTDNQYTRRYTYPISSANSWFVQFVYRDDAIRAYANLRTDPNWIIEWAQNINVPKNYNLLHKSKFKSSKYHQNNGIINNDGSNNNDNNNSNNNNREDSRRNGDVIEEECGHVHGSDSEEKLTSDGIYDDEDKDSEITIDKRSIFVGQLDKETTREELNRRFSTHGKIQDINLIFKPTNIFAFIKYETEEAAAAALESENHAIFLNKTMHVQYKEVGGRH
binding result [6]: binds

B3: Bmh2 (natural protein, UniProt P34730 1-273, looked up)
chain: MSQTREDSVYLAKLAEQAERYEEMVENMKAVASSGQELSVEERNLLSVAYKNVIGARRASWRIVSSIEQKEESKEKSEHQVELIRSYRSKIETELTKISDDILSVLDSHLIPSATTGESKVFYYKMKGDYHRYLAEFSSGDAREKATNSSLEAYKTASEIATTELPPTHPIRLGLALNFSVFYYEIQNSPDKACHLAKQAFDDAIAELDTLSEESYKDSTLIMQLLRDNLTLWTSDISESGQEDQQQQQQQQQQQQQQQQQAPAEQTQGEPTK
stoichiometry N [7]: 1
